What was measured:
[1] = target: T1, biotinylated-AviTag-haBiP^T229A-V461F, unmodified, ATP-bound (Chinese hamster, UniProt G3I8R9 27-635, T229A | V461F, biotin on the N-terminal Avi-tag); test: BLI; biotinylated Avi-tagged BiP (AMPylated or unmodified) on streptavidin biosensors, activated in 2 mM ATP; apo FICD variants (all H363A) as analytes at 50 nM unless otherwise specified; HKM with 0.05% Triton X-100, 30 °C; second dissociation step with 2 mM ATP; details: both partners purified
T1 construct: GS linker between the avi-tag and BiP; BiP, Chinese hamster, residues 27-635; Immobilised BLI ligand; The in vitro AMPylation assay used untagged BiP^T229A-V461F (UK2521); also called BiP:ATP; unmodified BiP; source: E. coli, purified; biotinylated in vitro, made apo, then loaded with 2 mM ATP on the sensor; not shown: His6-Smt3, N-terminal, cleaved; Avi-tag (biotinylated), N-terminal, kept

[2] = target: T2, AMPylated biotinylated-AviTag-haBiP^T229A-V461F (Chinese hamster, UniProt G3I8R9 27-635, T229A | V461F, AMP covalently attached to Thr518; biotin on the N-terminal Avi-tag); test: as above; details: both partners purified
T2 construct: GS linker between the avi-tag and BiP; BiP, Chinese hamster, residues 27-635; Immobilised BLI ligand; also called BiP-AMP; immobilised AMPylated BiP; source: E. coli, purified; AMPylated in vitro, biotinylated in vitro, made apo, then loaded with 2 mM ATP on the sensor; not shown: His6-Smt3, N-terminal, cleaved; Avi-tag (biotinylated), N-terminal, kept

[3] = target: T3, lid-truncated BiP^T229A-V461F-AMP (residues 27-549) (Chinese hamster, UniProt G3I8R9 27-549, T229A | V461F, AMP covalently attached to Thr518 (Thr518-AMP)); test: crystal structure; heterodimer of FICD^L258D-H363A and lid-truncated BiP-AMP copurified by SEC in TNKMT buffer (mixed 1.5:1 with 250 uM ATP, 50 mM KCl, 2 mM MgCl2); sitting drop at 25 °C; state 1: 0.1 M MES pH 6.5, 10% PEG 4000, 0.2 M NaCl; state 2: 0.1 M Tris pH 8.0, 25% PEG 400; details: both partners purified
T3 construct: BiP, Chinese hamster, residues 27-549 (all of the SBD-alpha lid removed but helix A); in the expressed range hamster and human BiP are identical; also called lid-truncated BiP-AMP; AMPylated BiP; source: E. coli, purified (Ni-NTA, on-bead Ulp1 cleavage, anion exchange, gel filtration); AMPylated in vitro with GST-TEV-FICD^E234G; not shown: His6-Smt3, N-terminal, cleaved

[4] = target: T4, BiP^T229A-V461F-AMP (residues 27-635) (Chinese hamster, UniProt G3I8R9 27-635, T229A | V461F, AMP covalently attached to Thr518); test: contrast variation small angle neutron scattering (SANS); complexes of partially deuterated and non-deuterated dimeric FICD^H363A and full-length BiP-AMP copurified by SEC (1.25:1 BiP-AMP:FICD, 250 uM ATP) into TNKMT(0.2) buffers of varying D2O content; 4.3-5.5 mg/ml, 12 °C; details: both partners purified
T4 construct: BiP, Chinese hamster, residues 27-635 ('full-length': complete structured region; lacks the acidic N-terminal region and the C-terminal region with KDEL); The deAMPylation assays used BiP^T229A-V461F (UK2521) AMPylated in vitro, with a trace of AMP(FAM)-labelled probe; also called full-length BiP-AMP; full-length AMPylated BiP; source: E. coli, purified; AMPylated in vitro with …

[5] = target: the molecule itself; test: as above

T2 sequence (G3I8R9 other isoform, or with tags, fused parts or gaps T229A | V461F | T229A | V461F | T229A V461F T229A V461F): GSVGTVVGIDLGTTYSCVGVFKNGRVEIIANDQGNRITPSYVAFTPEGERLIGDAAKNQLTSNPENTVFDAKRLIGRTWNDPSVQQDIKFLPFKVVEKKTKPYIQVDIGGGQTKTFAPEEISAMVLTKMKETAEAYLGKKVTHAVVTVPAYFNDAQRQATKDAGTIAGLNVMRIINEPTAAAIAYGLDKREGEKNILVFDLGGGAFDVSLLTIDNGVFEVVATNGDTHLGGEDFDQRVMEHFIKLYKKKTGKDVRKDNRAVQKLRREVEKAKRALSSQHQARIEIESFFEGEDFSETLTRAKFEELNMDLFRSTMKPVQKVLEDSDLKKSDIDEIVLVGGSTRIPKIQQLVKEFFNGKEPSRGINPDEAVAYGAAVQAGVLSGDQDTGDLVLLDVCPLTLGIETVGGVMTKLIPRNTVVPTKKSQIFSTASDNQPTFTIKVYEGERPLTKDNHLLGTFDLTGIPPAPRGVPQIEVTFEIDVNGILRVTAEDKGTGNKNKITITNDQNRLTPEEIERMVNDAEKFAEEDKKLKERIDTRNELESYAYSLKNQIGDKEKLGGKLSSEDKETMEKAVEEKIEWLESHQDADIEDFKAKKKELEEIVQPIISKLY
T1 sequence (G3I8R9 other isoform, or with tags, fused parts or gaps T229A | V461F | T229A | V461F | T229A V461F T229A V461F): as above
T4 sequence (G3I8R9 27-635 T229A/V461F): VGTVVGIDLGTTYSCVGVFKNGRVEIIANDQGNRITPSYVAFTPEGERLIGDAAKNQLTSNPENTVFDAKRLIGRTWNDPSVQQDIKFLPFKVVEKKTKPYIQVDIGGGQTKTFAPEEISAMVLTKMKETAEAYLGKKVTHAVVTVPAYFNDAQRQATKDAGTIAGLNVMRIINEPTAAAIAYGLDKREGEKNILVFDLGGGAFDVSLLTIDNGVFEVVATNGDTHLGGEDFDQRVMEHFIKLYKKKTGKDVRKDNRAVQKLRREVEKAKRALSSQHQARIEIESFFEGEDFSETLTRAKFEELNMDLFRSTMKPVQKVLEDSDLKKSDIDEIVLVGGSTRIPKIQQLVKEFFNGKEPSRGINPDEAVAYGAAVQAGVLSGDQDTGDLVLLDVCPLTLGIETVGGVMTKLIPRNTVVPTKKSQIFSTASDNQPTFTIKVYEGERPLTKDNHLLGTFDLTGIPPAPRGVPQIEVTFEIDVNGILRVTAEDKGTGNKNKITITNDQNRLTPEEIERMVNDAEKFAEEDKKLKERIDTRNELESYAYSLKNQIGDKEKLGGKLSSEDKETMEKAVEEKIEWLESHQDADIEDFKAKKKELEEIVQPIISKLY
T3 sequence (G3I8R9 27-549 T229A/V461F): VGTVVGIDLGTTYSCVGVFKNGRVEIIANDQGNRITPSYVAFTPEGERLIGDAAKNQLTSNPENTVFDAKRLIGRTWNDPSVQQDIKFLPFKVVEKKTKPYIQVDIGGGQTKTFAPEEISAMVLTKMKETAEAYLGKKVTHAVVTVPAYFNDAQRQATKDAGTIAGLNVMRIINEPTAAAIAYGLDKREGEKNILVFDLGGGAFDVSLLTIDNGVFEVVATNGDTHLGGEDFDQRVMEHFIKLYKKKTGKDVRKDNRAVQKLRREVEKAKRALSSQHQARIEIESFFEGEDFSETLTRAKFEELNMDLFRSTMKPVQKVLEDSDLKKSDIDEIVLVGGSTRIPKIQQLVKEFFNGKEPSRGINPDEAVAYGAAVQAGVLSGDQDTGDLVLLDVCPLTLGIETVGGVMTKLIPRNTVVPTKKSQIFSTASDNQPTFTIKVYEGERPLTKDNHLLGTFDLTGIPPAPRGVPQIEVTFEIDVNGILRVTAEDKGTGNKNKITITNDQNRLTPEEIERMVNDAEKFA

Row | binding result [1] | binding result [2] | binding result [3] | stoichiometry N [4] | Binder | binding result [5]
1 | binds | binds | binds |  | FICD^L258D-H363A (residues 104-445) (enzyme, human, UniProt Q9BVA6 104-445, looked up, FICD, human, residues 104-445 (only the predicted structured regions were expressed); Used in the crystal structures and as BLI analyte; also called monomeric FICD^L258D-H363A; monomeric FICD; source: E. coli (T7 Express lysY/Iq or M15), purified (Ni-NTA, on-bead Ulp1 cleavage, anion exchange, gel filtration); not shown: His6-Smt3, N-terminal, cleaved) LEARAALNQALEMKRQGKREKAQKLFMHALKMDPDFVDALTEFGIFSEEDKDIIQADYLYTRALTISPYHEKALVNRDRTLPLVEEIDQRYFSIIDSKVKKVMSIPKGNSALRRVMEETYYHHIYHTVAIEGNTLTLSEIRHILETRYAVPGKSDEEQNEVIGMHAAMKYINTTLVSRIGSVTISDVLEIHRRVLGYVDPVEAGRFRTTQVLVGHHIPPHPQDVEKQMQEFVQWLNSEEAMNLHPVEFAALAHYKLVYIAPFIDGNGRTSRLLMNLILMQAGYPPITIRKEQRSDYYHVLEAANEGDVRPFIRFIAKCTETTLDTLLFATTEYSVALPEAQP | 
2 |  | binds |  |  | TPR domain oxidised dimeric FICD^D160C-T183C-H363A-C421S (enzyme, human, UniProt Q9BVA6 104-445, looked up, intramolecular disulphide bond between Cys160 and Cys183 (TPRox), FICD, human, residues 104-445, FICD^D160C-T183C-C421S derivative of FICD^H363A; also called TPRox (dimeric); FICD(TPRox); source: E. coli, purified; oxidised with CuSO4 and 1,10-phenanthroline, further anion exchange and gel filtration; not shown: His6-Smt3, N-terminal, cleaved) LEARAALNQALEMKRQGKREKAQKLFMHALKMDPDFVDALTEFGIFSEEDKDIIQACYLYTRALTISPYHEKALVNRDRCLPLVEEIDQRYFSIIDSKVKKVMSIPKGNSALRRVMEETYYHHIYHTVAIEGNTLTLSEIRHILETRYAVPGKSLEEQNEVIGMHAAMKYINTTLVSRIGSVTISDVLEIHRRVLGYVDPVEAGRFRTTQVLVGHHIPPHPQDVEKQMQEFVQWLNSEEAMNLHPVEFAALAHYKLVYIAPFIDGNGRTSRLLMNLILMQAGYPPITIRKEQRSDYYHVLEAANEGDVRPFIRFIAKSTETTLDTLLFATTEYSVALPEAQP | 
3 |  |  |  | 1 FICD per BiP-AMP (2:2) | FICD^H363A (residues 104-445) (enzyme, human, UniProt Q9BVA6 104-445, looked up, FICD, human, residues 104-445; Used non-deuterated and partially deuterated in SANS, and as BLI analyte; also called dimeric FICD^H363A; dimeric FICD; source: E. coli, purified (Ni-NTA, on-bead Ulp1 cleavage, anion exchange, gel filtration); matchout-deuterated form from E. coli BL21 Star (DE3) in 85% deuterated medium, purified; not shown: His6-Smt3, N-terminal, cleaved) LEARAALNQALEMKRQGKREKAQKLFMHALKMDPDFVDALTEFGIFSEEDKDIIQADYLYTRALTISPYHEKALVNRDRTLPLVEEIDQRYFSIIDSKVKKVMSIPKGNSALRRVMEETYYHHIYHTVAIEGNTLTLSEIRHILETRYAVPGKSLEEQNEVIGMHAAMKYINTTLVSRIGSVTISDVLEIHRRVLGYVDPVEAGRFRTTQVLVGHHIPPHPQDVEKQMQEFVQWLNSEEAMNLHPVEFAALAHYKLVYIAPFIDGNGRTSRLLMNLILMQAGYPPITIRKEQRSDYYHVLEAANEGDVRPFIRFIAKCTETTLDTLLFATTEYSVALPEAQP | binds
4 | binds | binds |  |  | TPR domain oxidised monomeric FICD^D160C-T183C-L258D-H363A-C421S (enzyme, human, UniProt Q9BVA6 104-445, looked up, intramolecular disulphide bond between Cys160 and Cys183 (TPRox), FICD, human, residues 104-445, FICD^D160C-T183C-C421S derivative of FICD^L258D-H363A; also called TPRox (monomeric); FICD(TPRox); source: E. coli, purified; oxidised with CuSO4 and 1,10-phenanthroline, further anion exchange and gel filtration; not shown: His6-Smt3, N-terminal, cleaved) LEARAALNQALEMKRQGKREKAQKLFMHALKMDPDFVDALTEFGIFSEEDKDIIQACYLYTRALTISPYHEKALVNRDRCLPLVEEIDQRYFSIIDSKVKKVMSIPKGNSALRRVMEETYYHHIYHTVAIEGNTLTLSEIRHILETRYAVPGKSDEEQNEVIGMHAAMKYINTTLVSRIGSVTISDVLEIHRRVLGYVDPVEAGRFRTTQVLVGHHIPPHPQDVEKQMQEFVQWLNSEEAMNLHPVEFAALAHYKLVYIAPFIDGNGRTSRLLMNLILMQAGYPPITIRKEQRSDYYHVLEAANEGDVRPFIRFIAKSTETTLDTLLFATTEYSVALPEAQP | 

— publication doi:10.1101/2021.04.20.440599, “Structures of a deAMPylation complex rationalise the switch between antagonistic catalytic activities of FICD (14/96/109)” (bioRxiv, 2021)
